# Square brackets hold non-standard residues; d marks the D form. Side chains are listed from the residue outwards. Ends that are not written are not given here. * marks the point of attachment. Acetyl(2-(4-imidazolyl)) = O=C(Cc1c[nH]cn1)*
# Columns and labels:
# [1] = inactivation by DPP IV; Bolette H. et al. 2000; cited from earlier work
# human GLP-2 receptor = biological target: T1, human GLP-2 receptor (Homo sapiens, UniProt O95838); assay: In vitro activity: cAMP accumulation (LANCE cAMP kit) in CHO-K1 cells expressing human GLP-2 receptor; assay type: cell-based; settings: for In vitro activity compared to human GLP-2 (%) (relative titer), GLP-2 derivative: GLP-2 derivative / Teduglutide
# T1 construct: host or cells: CHO-K1
# T1 sequence (O95838 1-553): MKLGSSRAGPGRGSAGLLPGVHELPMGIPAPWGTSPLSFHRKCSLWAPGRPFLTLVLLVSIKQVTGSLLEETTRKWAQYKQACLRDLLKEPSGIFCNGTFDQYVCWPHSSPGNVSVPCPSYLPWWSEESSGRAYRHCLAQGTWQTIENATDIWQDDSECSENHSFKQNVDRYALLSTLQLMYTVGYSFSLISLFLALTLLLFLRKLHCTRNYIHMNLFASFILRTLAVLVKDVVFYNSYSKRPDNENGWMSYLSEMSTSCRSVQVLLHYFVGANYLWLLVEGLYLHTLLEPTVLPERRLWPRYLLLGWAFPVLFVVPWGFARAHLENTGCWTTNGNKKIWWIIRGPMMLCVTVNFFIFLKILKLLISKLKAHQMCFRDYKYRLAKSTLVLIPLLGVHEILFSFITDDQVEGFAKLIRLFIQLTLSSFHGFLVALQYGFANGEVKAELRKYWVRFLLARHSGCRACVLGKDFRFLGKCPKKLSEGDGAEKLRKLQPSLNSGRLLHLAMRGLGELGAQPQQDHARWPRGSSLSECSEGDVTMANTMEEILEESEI
# Text: In order to measure the activities of the GLP-2 derivatives and the long-acting conjugates of GLP-2 derivatives, which had been obtained in the previous Examples, a cell line in which a GLP-2 receptor is transformed was used to measure the cell activity in vitro. The cell line is one that has been transformed to express a human GLP-2 receptor in Chinese hamster ovary (CHO)—K1, and thus is suitable for measuring the activity of GLP-2 (DiscoverX, U.S.A.).
# In order to measure the activities of the GLP-2 derivatives and the long-acting conjugates thereof, human GLP-2 and Teduglutide (Gattex®, Shire) were subjected to a 3-fold serial dilution from 166.7 nM to 0.0028 nM; the GLP-2 derivatives were subjected to a 3-fold serial dilution from 500 nM to 0.0085 nM; and the long-acting conjugates of GLP-2 derivatives were subjected to a 3-fold serial dilution from 3000 nM to 0.0508 nM. The culture solution was removed from the cultured CHO-K1 cells, in which the human GLP-2 receptor is expressed, and then each of the serially diluted material was added to the cells in an amount of 5 μL, respectively. Thereafter, the buffer (5 μL) containing a cAMP antibody was added and then the cultivation was conducted at room temperature for 15 minutes. Then, a detection mix (10 μL) containing a cell lysis buffer was added thereto to dissolve the cells and reacted at room temperature for 60 minutes. The cell lysates, upon completion of the reaction, were applied to a LANCE cAMP kit (PerkinElmer, U.S.A.) to calculate the EC50 value via accumulated cAMP, and the values were compared with one another.
# [2] = Pharmacokinetics of long-acting conjugates of GLP-2 derivatives in SD rat (Example 5); assay type: in vivo; settings: normal SD rats, single subcutaneous injection 2.52 mg/kg, serum, ELISA
# Procedure: The pharmacokinetics of the long-acting conjugates of GLP-2 derivatives were compared in normal rats.
# Pharmacokinetic parameters thereof were calculated using the serum concentrations.
# in vivo = settings: SD, rat, sc, 2.5 mg/kg
# Procedure: (§1) 8-week-old normal rates were divided into a group administering Teduglutide (2.5 mg/kg) and a group administering the long-acting conjugate of CA GLP-2 RK (3.4K PEG) derivative (0.705 mg/kg). The test materials were subcutaneously injected once into the normal rats in each group (3 rats/group). Thereafter, whole blood was obtained by collecting blood samples from the coccygeal vein at 0.25, 0.5, 1, 1.5, 2, 3, 4, 6, 8, and 24 hours for the group administering Teduglutide; and at 4, 8, 24, 48, 72, 96, 120, 144, 168, 192, 216, 240, 264, 288, 312, and 336 hours for the group administering the long-acting conjugate of CA GLP-2 RK derivative. The whole blood was placed in a 1.5 mL microtube, centrifuged at room temperature at 5,000 rpm for 10 minutes, and then sera were separated and stored at −20° C. Concentrations of the stored sera from each group were quantified using an ELISA analysis method. For Teduglutide, a GLP-2 ELISA Kit (Alpco, #48-GP2HU-E01.1) was used. For the long-acting conjugate of CA GLP-2 RK derivative, a biotin-labeled GLP-2 polyclonal antibody (Phoenix Pharmaceuticals, #B-028-14) was bound to a plate coated with Streptavidin (Roche, #11645692001), and then reacted with the serum for 1 hour. After washing, anti-human IgG4-HPR (Alpha Diagnosis, #10124) was added thereto and allowed to react at room temperature for 1 hour. Thereafter, the resultants were subjected to a color reaction using a TMB reagent, and the absorbance was measured at a wavelength of 450 nm. Pharmacokinetic parameters thereof were calculated using the serum concentrations.
# [3] = Comparison of pharmacokinetics between long-acting conjugate of GLP-2 derivative and Teduglutide in SD rat (Example 6); settings: serum, sc, 2.5 mg/kg
# Procedure: as §1
# C57BL/6 mice = assay: Effect of increasing in vivo intestinal weight in normal mice (Example 7); settings: 13 days, Teduglutide 7.5 & 15 nmol/kg/BID, conjugate 4.15, 7.5, 15, 30 nmol/kg/Q2D
# Procedure: Five mice were placed in each group and autopsied after 13 days of the administrations. The small intestines were perfused, and the weight of the small intestines and the length of the villi within the small intestines were measured.
# [4] = relative titer from cAMP EC50, CHO-K1 cells expressing human GLP-2 receptor
molecule,measurement,setting,value
Glucagon-like peptide-2 [GLP-2],in vivo half-life,[1],≤ 7 min
"CA GLP-2 RK: GLP-2 derivative SEQ ID NO: 4: X1 imidazoacetyldeshistidine, X2 glycine, X30 arginine, X34 lysine ([Acetyl(2-(4-imidazolyl))]GDGSFSDEMNTILDNLAARDFINWLIQTRITDK)","In vitro activity compared to human GLP-2 (%) (relative titer), GLP-2 derivative",human GLP-2 receptor; [4],333.2%
"CA GLP-2 KK: GLP-2 derivative SEQ ID NO: 3: X1 imidazoacetyldeshistidine, X2 glycine, X30 lysine, X34 lysine (XGDGSFSDEMNTILDNLAARDFINWLIQTKITDK; X1 imidazoacetyldeshistidine; GLP-2 derivative; (1) Xaa is imidazoacetyldeshistidine)","In vitro activity compared to human GLP-2 (%) (relative titer), GLP-2 derivative",human GLP-2 receptor; [4],205.6%
"CA GLP-2 KC: GLP-2 derivative SEQ ID NO: 2: X1 imidazoacetyldeshistidine, X2 glycine, X30 lysine, X34 cysteine (XGDGSFSDEMNTILDNLAARDFINWLIQTKITDC; X1 imidazoacetyldeshistidine; GLP-2 derivative; (1) Xaa is imidazoacetyldeshistidine)","In vitro activity compared to human GLP-2 (%) (relative titer), GLP-2 derivative",human GLP-2 receptor; [4],149.3%
Long-acting conjugate of CA GLP-2 RC (10K PEG) derivative: CA-GLP-2 RC covalently linked to the immunoglobulin Fc by 10 kDa PEG at the 34th cysteine ([Acetyl(2-(4-imidazolyl))]GDGSFSDEMNTILDNLAARDFINWLIQTRITDC([PEG 10 kDa-immunoglobulin Fc]); also: Cys34 linked via 10 kDa PEG to immunoglobulin Fc),AUClast,[2],1384.9499 ± 186.8176 µg·h/mL
same,Cmax,[2],13350.4 ± 3611.4 ng/mL
same,MRTlast,[2],88.9 ± 9.4 h
same,T1/2,[2],54.4 ± 6.9 h
same,Tmax,[2],26.7 ± 20.1 h
same,Activation of the GLP-2 receptor / relative potency (in words),"human GLP-2 receptor; CHO-K1 cells expressing human GLP-2 receptor, cAMP",higher activities compared to the long-acting conjugate of GLP-2 derivative (CA GLP-2 KC)
same,"In vitro activity compared to human GLP-2 (%) (relative titer), conjugate of GLP-2 derivative","human GLP-2 receptor; relative titer from cAMP EC50, CHO-K1 cells expressing human GLP-2 receptor, long-acting conjugates",46.0%
CC[C@H](C)[C@H](NC(=O)[C@H](Cc1ccccc1)NC(=O)[C@H](CC(=O)O)NC(=O)[C@H](CCCNC(=N)N)NC(=O)[C@H](C)NC(=O)[C@H](C)NC(=O)[C@H](CC(C)C)NC(=O)[C@H](CC(N)=O)NC(=O)[C@H](CC(=O)O)NC(=O)[C@H](CC(C)C)NC(=O)[C@@H](NC(=O)[C@@H](NC(=O)[C@H](CC(N)=O)NC(=O)[C@H](CCSC)NC(=O)[C@H](CCC(=O)O)NC(=O)[C@H](CC(=O)O)NC(=O)[C@H](CO)NC(=O)[C@H](Cc1ccccc1)NC(=O)[C@H](CO)NC(=O)CNC(=O)[C@H](CC(=O)O)NC(=O)CNC(=O)[C@@H](N)Cc1c[nH]cn1)[C@@H](C)O)[C@@H](C)CC)C(=O)N[C@@H](CC(N)=O)C(=O)N[C@@H](Cc1c[nH]c2ccccc12)C(=O)N[C@@H](CC(C)C)C(=O)N[C@H](C(=O)N[C@@H](CCC(N)=O)C(=O)N[C@H](C(=O)N[C@@H](CCCCN)C(=O)N[C@H](C(=O)N[C@H](C(=O)N[C@@H](CC(=O)O)C(=O)O)[C@@H](C)O)[C@@H](C)CC)[C@@H](C)O)[C@@H](C)CC [Teduglutide],AUC(0-t),in vivo,2.6 ± 0.581 µg·h/mL
same,Cmax,in vivo,1680 ± 744 ng/mL
same,MRT last,in vivo,1.4 ± 0.1 h
same,Tmax,in vivo,0.7 ± 0.3 h
same,half-life,[3],0.6 ± 0.1 h
same,length of the villi within the small intestines,C57BL/6 mice,increase in the length of the villi
same,weight of the small intestines,C57BL/6 mice,increased in a dose-dependent manner
same,"In vitro activity compared to human GLP-2 (%) (relative titer), GLP-2 derivative",human GLP-2 receptor; [4],147.5%
